In the Human Domainome abundance scans (Beltran et al. 2025):

B1: POU domain, class 3, transcription factor 4, residues 280 to 335; numbered along this chain, P49335 (parent)
chain: KKRTSIEVSVKGVLETHFLKCPKPAAQEISSLADSLQLEKEVVRVWFCNRRQKEKR
B2: Chromodomain-helicase-DNA-binding protein 3, residues 374 to 426; numbered along this chain, Q12873 (parent)
chain: YETDHQDYCEVCQQGGEIILCDTCPRAYHLVCLDPELDRAPEGKWSCPHCEKE

Variants of: B1
Assay: abundance fitness (aPCA) (normalised: wild type 0, dead -1); higher = more abundant; growth selection in yeast, the domain comes from the species named
Details: Homo sapiens

Abundance fitness, by site and new letter:
E41: N -0.189; P -0.831; Q -0.792; R -0.637; S -0.368; T -0.466; V -0.817; W -0.852; Y -0.819
V42: A -0.552; D 0.216; E 0.185; F -0.318; G -0.648; I -0.49; K -0.596; L -0.122; M -0.401; N -0.799; P -0.874; Q -0.254; R -0.689; S -0.431; T 0.207; W -0.291; Y -0.396
V43: A -0.692; C -0.832; D -0.614; E -0.815; F -0.567; G -0.687; I -0.543; K -1.01; L -0.437; M -1.22; P -0.774; Q -0.601; R -0.738; S -0.852; T -0.975; W -1.19; Y -0.545
R44: A -0.193; C -0.801; E 0.182; G -0.473; I -1.01; L -0.686; M -0.539; N 0.059; P -0.865; Q -0.074; S -0.343; T -0.343; V -0.84; W -0.68; Y -0.643
V45: A 0.085; C -0.243; E 0.193; F -0.517; G -0.25; H -0.077; I -0.527; K 0.165; L 0.052; M -0.041; N 0.373; P -0.38; Q 0.156; R -0.062; S 0.097; T 0.307; W -0.337; Y -0.372
W46: A -0.623; E -0.892; F -1.05; G -0.639; H -0.647; I -0.688; K -0.673; M -0.932; N -0.816; P -0.953; Q -0.403; R -0.927; S -0.693; T -0.709; V -0.82
F47: A -0.65; C -0.792; D -0.565; E -0.872; G -0.745; H -0.571; K -1.16; L -0.868; M -0.897; P -0.996; Q -0.899; R -0.677; S -0.426; V -0.795; W -0.769; Y -0.534
C48: A -0.051; D 0.023; E 0.549; G -0.526; H 0.068; I 0.155; K 0.282; M 0.022; N -0.113; P -0.762; Q 0.154; R 0.056; S 0.078; T -0.187; V 0.058; W -0.073
N49: A -0.373; C -0.686; D 0; E 0.117; F -0.574; G -0.711; H -0.46; I -0.613; K -0.119; L -0.479; M -0.304; P -0.724; Q 0; S -0.308; T -0.363; W -0.885; Y -0.752
R50: A -0.582; C -0.769; E -0.814; G -0.778; I -0.93; K -0.446; L -0.93; M -0.692; N -0.771; P -0.87; Q -0.88; T -0.693; W -0.999; Y -0.559
R51: A -0.309; C -0.506; D -0.839; E -0.258; G -0.804; K -1.04; L -0.305; M -0.243; N -0.628; P -0.834; Q -0.237; S -0.549; T -0.848; V -0.424; W -0.221; Y -0.193
Q52: A 0.203; C -0.291; D 0.231; E 0.084; F -0.931; G -0.34; H -0.069; I -0.126; L -0.055; M 0.071; N 0.273; P -0.741; R -0.317; T -0.351; V -0.378; W -0.685; Y -0.095
K53: A -0.066; C -0.428; D -0.232; E 0.194; F -0.027; G -0.826; M -0.049; N -0.544; P -0.884; Q -0.258; R -0.171; S -0.318; T -0.428; W -0.888; Y -0.616
E54: A -0.788; C -0.897; F -0.836; G -0.808; H -0.906; K -0.591; L -0.787; M -0.819; Q -0.259; S -0.679; T -1.06; V -0.634; W -0.902
K55: A -0.1; C -0.017; D -0.223; E -0.259; F -0.194; G -0.392; I -0.604; M -0.264; N -0.147; P -0.764; Q -0.016; R -0.027; S -0.368; T -0.417; V -0.069; W -0.497; Y -0.259
R56: A -0.085; E 0.387; G -0.325; L -0.075; M 0.123; N 0.38; S 0.015; T 0.002; W -0.393; Y -0.144

Variants of: B2
Assay: as above
Details: Homo sapiens

Abundance fitness of substitutions, site by site:
Y1: C 0.258; D -0.2; E 0.154; G 0.416; I 0.557; K 0.352; L 0.172; N -0.287; S -0.264; V 0.156; W 0.259
E2: A -0.263; C 0.138; D 0.327; F 0.285; G -0.011; H 0.126; I 0.419; K 0.294; L 0.282; M 0.549; N 0.526; P -0.095; Q 0.231; R -0.086; S 0.125; T 0.34; V -0.232; W -0.006; Y 0.327
T3: A -0.179; C -0.048; D -0.163; E 0.314; F 0.236; G 0.136; H -0.481; I -0.035; K 0.363; M 0.377; P -0.09; Q -0.069; R 0.206; V -0.055; W 0.13; Y 0.113
D4: A 0.133; C -0.066; F -0.055; G -0.001; H -0.136; I -0.156; K -0.041; L 0.077; M 0.438; N -0.406; Q 0.075; R -0.203; T 0.079; V 0.166; W -0.088; Y -0.126
H5: A 0.329; C 0.222; D -1.03; E -0.137; F -0.171; G 0.366; L 0.161; N 0.229; P -0.071; Q 0.13; R 0.118; S 0.302; T 0.186; V 0.142; W -0.197
Q6: A -0.209; C -0.499; D -0.294; E -0.227; F -0.579; G -0.299; H -0.014; P -0.353; R -0.139; S -0.439; W -0.378; Y -0.267
D7: A 0.043; E -0.263; F -0.37
